The text below walks through data of article PMC6003922, “Functional switching of ascorbate peroxidase 2 of rice (OsAPX2) between peroxidase and molecular chaperone” (Scientific Reports, 2018).

By stoichiometry N is commonly meant a count of units in the complex or per binding partner.

This data set concerns the molecule itself. As to the kind of experiment: SEC; Superdex 200 10/300 GL, FPLC, 50 mM Tris-HCl pH 7.5, 100 mM NaCl, 0.5 mL/min, 4 °C; four fractions: F1 HMW complexes (>2,000 kDa), F2 and F3 LMW forms (between 158 and 440 kDa), F4 major dimeric form. (Size exclusion chromatography separates by hydrodynamic size, large species first.)

B1: recombinant Oryza sativa ascorbate peroxidase 2 (OsAPX2) protein (enzyme, UniProt Q9FE01 1-251, looked up)
chain: MGSKSYPTVSDEYLAAVGKAKRKLRGLIAEKNCAPLMLRLAWHSAGTFDVSSRTGGPFGTMKNPGEQSHAANAGLDIAVRLLDPIKDQLPILSYADFYQLAGVVAVEVTGGPEVPFHPGRQDKPEPPPEGRLPDATQGSDHLRQVFSAQMGLSDKDIVALSGGHTLGRCHKERSGFEGAWTSNPLIFDNSYFTELVSGEKEGLLQLPSDKALMADPAFRPLVEKYAADEDAFFADYAEAHLKLSELGFAEE
notes: Ascorbate peroxidase 2 (OsAPX2), cytosolic, Oryza sativa; the OsAPX2 gene cloned into pET28a; monomer of approximately 27 kDa on reducing SDS-PAGE; Haem-containing peroxidase; also called His-tagged OsAPX2; purified OsAPX2; source: E. coli BL21 (DE3), pET28a, purified (nickel-nitrilotriacetate agarose; SEC)
On to B1, for which the “stoichiometry N” value is 2.
